Two substances from article doi:10.1101/2021.01.14.426695 can be followed below.

By stoichiometry N is commonly meant a count of units in the complex or per binding partner.

The target of test [1] is S-R (SARS-CoV-2 S protein trimer, furin site deleted to a single arginine) (SARS-CoV-2). Kind of test: negative stain EM.
The target in test [2] is S-R/PP (SARS-CoV-2 S protein trimer, furin site deleted to a single arginine, two stabilizing prolines) (SARS-CoV-2). Kind of test: negative stain EM.

In the case of “S-R (SARS-CoV-2 S protein trimer, furin site deleted to a single arginine)”, the stoichiometry N in test [1] was determined as 3.
In test [2], “S-R/PP (SARS-CoV-2 S protein trimer, furin site deleted to a single arginine, two stabilizing prolines)” registered a stoichiometry N of 3.
